The record followed here is US20230203098A1, “HUMAN TRANSFERRIN RECEPTOR BINDING PEPTIDE” (priority 2020, published 2023).

The series concerns hTfR-KI mice. As to the kind of experiment: Mouse brain localization confirmation test with FITC conjugate (immunohistochemical staining, single and multiple dose). It is filed as in vivo. The conditions noted are these: multiple dose test, 3.7 mg/kg every 10 minutes, 6 times. The procedure: In the same manner as in Example 5, the conjugate of the hTfR-binding special cyclic peptide No. 894 and the fluorescent substance FITC was administered to the hTfR-KI mice. The dose was adjusted to 3.7 mg/kg.
One hour after administration, the mice were anesthetized with isoflurane and subjected to a blood removal treatment by running normal saline from the left ventricle for 4 to 5 minutes. After that, the brain was collected for measuring the fluorescence intensity and stored in normal saline to prevent drying. This brain tissue was subjected to immunohistochemical staining using an anti-FITC antibody (MBL Life Science). The immunohistochemical staining in the brain tissue using the anti-FITC antibody was performed with a publicly known method and the staining was observed using a fluorescence microscope. Note that in the figure, red arrows indicate the cerebral capillaries and arrowheads indicate the Purkinje cells.
The localization of the above-mentioned conjugate in the brain tissue was confirmed by the immunohistochemical staining. Note that, in the figure, red arrows indicate the cerebral capillaries, arrowheads indicate the Purkinje cells, and yellow arrows indicate dendrites.

Take `CC[C@H](C)[C@@H]1NC(=O)[C@H](Cc2ccc(O)cc2)NC(=O)[C@H](Cc2ccc(O)cc2)NC(=O)[C@H](CC(N)=O)NC(=O)[C@H](Cc2c[nH]c3ccccc23)NC(=O)[C@H](C(C)C)NC(=O)[C@H](Cc2ccccc2)NC(=O)[C@H](C(C)C)NC(=O)[C@H](C)NC(=O)CSC[C@@H](C(=O)NCCOCCOCCOCCOCCOCCOCCOCCOCCOCCOCCOCCOCCC(=O)N[C@@H](CCCCNC(=O)c2ccc(-c3c4ccc(=O)cc-4oc4cc(O)ccc34)c(C(=O)O)c2)C(N)=O)NC(=O)[C@H](Cc2ccc(O)cc2)N(C)C(=O)[C@H](Cc2ccc(O)cc2)NC(=O)[C@H](CCCNC(=N)N)NC(=O)[C@H](CCCNC(=N)N)NC(=O)[C@H]([C@@H](C)CC)NC1=O`: the “localization in the brain tissue” value is on record as “reached as far as neurons such as the Purkinje cells”.
